The target in the test is chromatin fibers containing chemically produced H3K9me3 (histone octamers on 12 x 601 array DNA, DA1 or DA2 labelled) (human).

“Heterochromatin protein 1α (HP1α, CBX5) (from UniProt P45973 1-191) (natural protein)”: the time constant of the increase of compaction (FRET, DA2) after injection of 1 μM HP1α into flow cells with H3K9me3-modified chromatin fibers is 1.1 s.

For the origin of these results see paper PMC5770380.
